From US20220089765A1, “CD31 COMPETITORS AND USES THEREOF” (ENCEFA, priority 2019, published 2022)

What was measured:
[1] = biological target: CD38 (on cells of midbrain cultures from Wistar rat embryos) (UniProt Q64244); assay: cell-based or functional assay
[2] = system: dopaminergic neurons of the right substantia nigra pars compacta; assay: 6-OHDA mouse model, number of DA (TH+) neurons; assay type: in vivo, mice
Protocol: We aimed at determining whether B08 or D06 anti-CD38 antibodies were neuroprotective in vivo against neurodegeneration induced by oxidative stress. Mouse were administered with 6-hydroxydopamine (6-OHDA) in the right striatum. Since 6-OHDA is an analogue of dopamine, it is transported in dopaminergic neurons through the dopamine transporter, resulting in a specific degeneration and loss of dopaminergic neurons of the right substantia nigra pars compacta. It has been extensively used as a test system for novel symptomatic agents and for assessment of neuroprotective and neurorepair strategies (Galindo et al., 2014. In Kostrzewa (Ed.), Handbook of neurotoxicity (1st Ed., pp. 639-651). New York: Springer-Verlag). Since 6-OHDA is injected unilaterally in the right striatum, left striatum remains unaffected and each mouse is its own control.
Two in vivo mouse models were used: the 6-OHDA mouse model and the MPTP mouse model. For the 6-OHDA mouse model, the intoxication protocol was based on the unilateral stereotaxic intrastriatal injection of 6-OHDA in the right striatum. Intracerebral or intravenous injections of treatments were made either the day before the surgical stereotaxic procedure, concomitantly with 6-OHDA during the surgical stereotaxic procedure, or two days after 6-OHDA injection. Animals were sacrificed 8 days after the surgical stereotaxic procedure.
For unilateral 6-OHDA mouse model, animals were anesthetized using Chloral hydrate (400 mg/kg, i.p.) and placed into a stereotactic frame adapted to mice. The injection was performed using a Hamilton syringe at the following coordinates: AP: […], ML: […], DV: […] (corresponding to the atlas of Franklin and Paxinos, 1997). A total volume of 2.5 μL containing or not 5 μg of 6-OHDA diluted in PBS in the presence or the absence of test treatments was injected. The needle was left in place for 10 min after the injection before retraction.
Mice were sacrificed by cervical dislocation, and beheaded to collect brain and blood samples. The brain was fixed in a paraformaldehyde solution (4%) during 1 day before being soaked in sucrose (30%) during 2 days and then froze at −80° C. for further analysis.
Each brain was sliced using a freezing microtome at −30° C. The thickness of each slice was 20 μm. The slicing was done around the substantia nigra (80 slices from slice 51 to 63 according to Allen Mouse Brain).
Slices were then washed out in PBS and incubated with anti-Tyrosine Hydroxylase to stain dopaminergic neurons (Abcam®) during 2 days, at 4° C., with agitation. Slices were incubated with corresponding secondary antibody in the presence of DAPI (Sigma Aldrich®) to stain cell's nuclei during 2 hours at room temperature, and mounted on gelatin-coated slides.
The slices were imaged using a Nikon TE2000 U equipped with a Hamamatsu ORCE-ER camera or with a Zeiss Axio Vert.A1 equipped with an axiocam 503 mono camera. Image analysis was done using Image J software or Zen (Zeiss®).

[3] = in humans; cited from earlier work
[4] = system: midbrain dopaminergic (TH+) neurons; assay: MPP+ intoxication model in midbrain cell cultures, survival of DA (TH+) neurons; assay type: cell-based, Wistar rat; conditions: for neuroprotective effect against MPP+-induced DA cell death, compared with reference clone HB7: 3 μM MPP+ between 5 and 7 DIV, each clone and HB7 0.5 μg/mL; for neuroprotective effect in the presence of the lysosomal exocytosis inhibitor vacuolin-1: 3 μM MPP+, test substance 1 μg/mL, vacuolin-1 10 μM
Protocol: For this purpose, spontaneously occurring DA cell death was prevented by a treatment combining depolarizing concentrations of K^+ (30 mM) and MK801 (5 μM), a glutamate receptor antagonist used to prevent unwanted excitotoxic insult. The cultures were then exposed to 3 μM MPP between 5 and 7 days in vitro (DIV) to achieve a loss of approximately 50% of DA neurons.
Animals were treated in accordance with the Guide for the Care and Use of Laboratory Animals (National Research Council, 1996), European Directive 86/609, and the guidelines of the local institutional animal care and use committee. Cultures were prepared from the ventral mesencephalon of gestational age 15.5 Wistar rat embryos (Janvier Breeding Center, Le Genest St Isle, France). Dissociated cells in suspension obtained by mechanical trituration of midbrain tissue pieces were seeded at a density of 1.2-1.5×10^5 cells/cm^2 onto tissue culture supports precoated with 1 mg/mL polyethylenimine diluted in borate buffer pH 8.3 as described (Michel et al., 1997. J Neurochem. 69(4):1499-507). The cultures were then maintained in N5 medium supplemented with 5 mM glucose, 5% horse serum, and 0.5% fetal calf serum, except for the first 3 DIV, when the concentration of fetal calf serum was 2.5% to favor initial maturation of the cultures (Guerreiro et al., 2008. Mol Pharmacol. 74(4):980-9). They were fed daily by replacing 70% of the medium. Routinely, mesencephalic cultures were established on Nunc 24-well culture plates (Thermofischer Scientific, Rochester, N.Y.). Note that these cultures contain tyrosine hydroxylase (TH)^+ neurons that were exclusively dopaminergic (Traver et al., 2006. Mol Pharmacol. 70(1):30-40). TH^+ neurons represented approximately 1-2% of the total number of neuronal cells present in these cultures. The evaluation of the survival of DA neurons was performed by counting cells immunopositive for TH as described (Toulorge et al., 2011. Faseb J. 25(8):2563-73).
Treatments with MPP were performed in cultures where the spontaneous death process was prevented by long-term exposure to depolarizing concentrations of K^+ (30 mM), in the presence of the glutamate receptor antagonist MK801 (5 μM) to prevent unwanted excitotoxic insults as described previously (Douhou et al., 2001. J Neurochem. 78(1): 163-74). Treatments with MPP and potential neuroprotective molecules were carried out between 5 and 7 DIV.
The cultures were fixed for 12 min using 4% formaldehyde in Dulbecco's phosphate-buffered saline (PBS), then washed twice with PBS before an incubation step at 4° C. for 24 h with the following antibodies. A monoclonal anti-TH antibody diluted 1/5000 (ImmunoStar, Inc., Hudson, Wis.) was used to assess the survival of DA neurons. Antibody was diluted in PBS containing 0.2% Triton X-100. Detection of the primary antibodies was performed with an Alexa Fluor-488 conjugate of an anti-mouse IgG antibody.

[5] = system: human peripheral blood mononuclear cells (PBMCs); assay: IL-10 release from human PBMCs in vitro (ELISA); assay type: cell-based; conditions: PBMCs from 3 healthy donors; 10 μg/ml; LPS 500 ng/mL and interferon-γ 1B 100 ng/mL; 24 hours
Protocol: 3 healthy volunteers (Donor 1: Donor 2: Donor 3) served as blood donors. Venous blood (5 mL) was collected into heparinized tubes and immediately processed. Briefly, blood was diluted 1/1 in pre-warmed RPMI 1640 medium. PBMCs were isolated using gradient centrifugation in Ficoll solution (Sigma; 300×g, 30 min). Isolated PBMCs were re-suspended in 1 volume of pre-warmed RPMI 1640 medium and centrifuged again (300×g, 30 min). PBMCs were re-suspended in RPMI 1640 medium supplemented with 10% human serum (Sigma-Aldrich) at a concentration of 10^7 cells per mL. Cells were seeded in 96 well microplate (100 μL per well). Test compounds (10 μg/ml), LPS (500 ng/mL) and interferon-γ 1B (100 ng/mL) were added to PBMCs culture immediately after plating. After 24 hours, cell culture supernatants were collected and frozen at −80° C. for further processing.
IL-10 levels in cell culture supernatants were assayed using an ELISA human IL-10 kit (Ozyme®) according to the indications for use specified by the manufacturer.

Chain of UniProt Q64244 (Q64244 whole entry): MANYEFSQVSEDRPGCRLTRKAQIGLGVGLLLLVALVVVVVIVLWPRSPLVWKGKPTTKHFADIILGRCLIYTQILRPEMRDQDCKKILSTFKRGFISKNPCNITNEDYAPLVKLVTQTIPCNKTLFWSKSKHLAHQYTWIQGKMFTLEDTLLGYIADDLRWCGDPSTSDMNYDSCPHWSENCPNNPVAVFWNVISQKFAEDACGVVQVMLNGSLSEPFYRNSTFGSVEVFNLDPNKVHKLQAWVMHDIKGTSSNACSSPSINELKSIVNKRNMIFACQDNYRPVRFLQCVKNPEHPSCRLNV

murine sCD31 (from UniProt Q08481 18-585) (ligand)
EC50 of prevention of MPP+-induced DA cell loss (TH+ cell survival in midbrain cultures) [1]: 0.036 µg/mL

Daratumumab: anti-CD38 antibody Daratumumab [reference compound]
neuroprotective effect in 6-OHDA model ([2]; 15 mg/kg iv one day before 6-OHDA injection): failed to demonstrate neuroprotective activity

B1: ABBV-8E12: monoclonal antibody whose brain/plasma ratio in humans is cited (antibody, chains of the INN, looked up, V domains shown)
VH: EVKVVESGGGLVQPGGSMKLSCVVSGFTFSNYWVNWVRQAPGKGLEWVAQIRLKSDNYATHYEESVKGRFTISRDDSKSSVYLQMNNLRAEDSGIYYCTNWEDYWGQGTTVTVSS
VL: DIVLTQSPDSLAVSLGERATISCRASQSVSTSRYSYIHWYQQKPGQPPKLLIKYASNLESGVPSRFSGSGSGTDFTLNIHPLEPEDFATYYCHHSWEIPLTFGQGTKLEIK
Brain/plasma ratio [3]: 0.385%

B2: Clone C05: anti-human CD38 antibody, HCVR SEQ ID NO: 34 and LCVR SEQ ID NO: 40 (antibody, V domains shown)
VH: EVQLVESGGSLVKPGGSLRLSCAASGFTFSNNYMNWVRQAPGKGLEWISSISGSSRYISYADFVKGRFTISRDNAKNSLYLQMNSLRAEDTAVYYCVRSSSSYYYSGNGMDVWGRGTLVTVSS
VL: QSVLTQPASVSGSPGQSITISCAGTSSDVGGSSYVSWYQQHPGKAPKLMIYYDSYRPSGVSNRFSGSKSGNTASLTISGLQAEDEADYYCSSNTYYSTRVFGGGTKL
modifications: HCVR C05; LCVR C05/C06
neuroprotective effect against MPP+-induced DA cell death, compared with reference clone HB7 [4]: stronger neuroprotective effect
neuroprotective effect in the presence of the lysosomal exocytosis inhibitor vacuolin-1 [4]: antagonized
IL-10 release [5]: statistically significantly increased

B3: Clone D07: anti-human CD38 antibody, HCVR SEQ ID NO: 37 and LCVR SEQ ID NO: 42 (antibody, V domains shown)
VH: EVQLVESGGSLVKPGGSLRLSCAASGFTFSNSAMNWVRQAPGKGLEWISYISGSSRDISYADFVKGRFTISRDNAKNSLYLQMNSLRAEDTAVYYCVRSSSSYYYSGSGMDVWGRGTLVTVSS
VL: QSVLTQPASVSGSPGQSITISCAGTSSDVGGNSYVSWYQQHPGKAPKLMIYYDSYRPSGVSNRFSGSKSGNTASLTISGLQAEDEADYYCSSNTYYSTRVFGGGTKL
modifications: HCVR D07; LCVR D07/D10
neuroprotective effect in the presence of the lysosomal exocytosis inhibitor vacuolin-1 [4]: antagonized
IL-10 release [5]: statistically significantly increased

B4: Clone C06: anti-human CD38 antibody, HCVR SEQ ID NO: 35 and LCVR SEQ ID NO: 40 (antibody, V domains shown)
VH: EVQLVESGGSLVKPGGSLRLSCAASGFTFSNSAMNWVRQAPGKGLEWISSISGSSRNIYYADFVKGRFTISRDNAKNSLYLQMNSLRAEDTAVYYCVRSSYSSYGSGNGMDVWGRGTLVTVSS
VL: QSVLTQPASVSGSPGQSITISCAGTSSDVGGSSYVSWYQQHPGKAPKLMIYYDSYRPSGVSNRFSGSKSGNTASLTISGLQAEDEADYYCSSNTYYSTRVFGGGTKL
modifications: HCVR C06; LCVR C05/C06
neuroprotective effect in the presence of the lysosomal exocytosis inhibitor vacuolin-1 [4]: antagonized

B5: Clone D10: anti-human CD38 antibody, HCVR SEQ ID NO: 38 and LCVR SEQ ID NO: 42 (antibody, V domains shown)
VH: EVQLVESGGSLVKPGGSLRLSCAASGFTFSNSAMNWVRQAPGKGLEWISSISGSSRDIYYADFVKGRFTISRDNAKNSLYLQMNSLRAEDTAVYYCVRSSSSYYYSGNGMDVWGRGTLVTVSS
VL: QSVLTQPASVSGSPGQSITISCAGTSSDVGGNSYVSWYQQHPGKAPKLMIYYDSYRPSGVSNRFSGSKSGNTASLTISGLQAEDEADYYCSSNTYYSTRVFGGGTKL
modifications: HCVR D10; LCVR D07/D10
neuroprotective effect against MPP+-induced DA cell death, compared with reference clone HB7 [4]: stronger neuroprotective effect

B6: Clone D06: anti-human CD38 antibody, HCVR SEQ ID NO: 36 and LCVR SEQ ID NO: 41 (antibody, V domains shown)
VH: EVQLVESGGSLVKPGGSLRLSCAASGFTFSNYDMNWVRQAPGKGLEWISYIYGSSRDISYADFVKGRFTISRDNAKNSLYLQMNSLRAEDTAVYYCVRSSGYYFGYGMDVWGRGTLVTVSS
VL: QSVLTQPASVSGSPGQSITISCAGTSSDVGGSYYVSWYQQHPGKAPKLMIYSDSYRPSGVSNRFSGSKSGNTASLTISGLQAEDEADYYCSSNTAYSTRVFGGGTKL
modifications: HCVR D06; LCVR D06
protection of dopaminergic neurons of the right substantia nigra pars compacta ([2]; 0.1 mg/kg injected intracerebrally concomitantly with 6-OHDA): statistically significantly protected
neuroprotective effect against MPP+-induced DA cell death, compared with reference clone HB7 [4]: stronger neuroprotective effect
neuroprotective effect in the presence of the lysosomal exocytosis inhibitor vacuolin-1 [4]: antagonized
IL-10 release [5]: statistically significantly increased
